Reference: patent US20170313750A1 (Novo Nordisk, published 2017)
Numbered stars: 1 amine (or outer) side, 2 acyl side, 3 side chain; on linkers, the order of the positions; unused ones are H or OH. Side chains are listed from the residue outwards. * marks the point of attachment. Hexadecanoyl(16-SO3H) = O=C(CCCCCCCCCCCCCCCS(=O)(=O)O)*; C18 diacid = O=C(O)CCCCCCCCCCCCCCCCC(=O)*; γGlu = O=C(O)[C@H](CCC(=O)[*:2])N[*:1]; Isovaleryl = CC(C)CC(=O)*; AEEA = NCCOCCOCC(=O)O

T1: human Y2 receptor (P49146, NPY2R_HUMAN, Uniprot) (human, UniProt P49146 1-381)
T1 construct: whole, on cells; also called human NPY Y2 receptor
T1 sequence (looked up): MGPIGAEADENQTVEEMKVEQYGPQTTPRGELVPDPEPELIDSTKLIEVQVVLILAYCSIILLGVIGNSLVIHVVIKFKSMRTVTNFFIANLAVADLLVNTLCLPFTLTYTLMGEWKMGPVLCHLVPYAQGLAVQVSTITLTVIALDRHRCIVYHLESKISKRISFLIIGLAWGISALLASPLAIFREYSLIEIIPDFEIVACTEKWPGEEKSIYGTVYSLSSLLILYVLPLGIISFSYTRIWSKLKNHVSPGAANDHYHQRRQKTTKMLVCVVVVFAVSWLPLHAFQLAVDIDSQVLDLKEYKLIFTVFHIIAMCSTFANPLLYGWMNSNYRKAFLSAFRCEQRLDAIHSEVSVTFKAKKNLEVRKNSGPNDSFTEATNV

T2: human Y5 receptor (Q15761, NPY5R_HUMAN, Uniprot) (human, UniProt Q15761 1-445)
T2 construct: whole, on cells; Assayed as membrane preparations of the expressing cells
T2 sequence (looked up): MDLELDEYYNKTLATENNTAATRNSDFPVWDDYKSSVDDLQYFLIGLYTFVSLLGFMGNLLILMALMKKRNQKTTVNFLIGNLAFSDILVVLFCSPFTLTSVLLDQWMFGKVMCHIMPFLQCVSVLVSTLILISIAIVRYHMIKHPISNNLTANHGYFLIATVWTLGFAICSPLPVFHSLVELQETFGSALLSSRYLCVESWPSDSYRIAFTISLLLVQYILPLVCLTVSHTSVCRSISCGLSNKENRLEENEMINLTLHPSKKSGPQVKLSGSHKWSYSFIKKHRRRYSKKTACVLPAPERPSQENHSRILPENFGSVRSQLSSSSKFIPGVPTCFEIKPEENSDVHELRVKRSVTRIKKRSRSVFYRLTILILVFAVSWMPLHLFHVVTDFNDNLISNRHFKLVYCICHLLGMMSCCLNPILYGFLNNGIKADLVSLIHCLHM


Legend:
[1] = molecular target: T1, human Y2 receptor (P49146, NPY2R_HUMAN, …); assay: SPA vs [125I]-PYY(1-36)
Experimental: (§1) Human Y receptor SPA binding assay were performed in white 96-well plates in a total volume of 200 μl per well.
(§2) Plates were sealed and incubated at +25° C. for 2 hours in a plate shaker set at 400 rpm and thereafter centrifuged at 1500 rpm for 10 minutes prior to reading of luminescence on a microplate scintillation and luminescence counter.

[2] = molecular target: T1, human Y2 receptor (P49146, NPY2R_HUMAN, …); assay: cell-based or functional assay
[3] = molecular target: T2, human Y5 receptor (Q15761, NPY5R_HUMAN, …); assay: SPA vs [125I]-PYY(1-36)
Experimental: as §1, §2

[4] = molecular target: T3, human Y4 receptor (P50391, NPY4R_HUMAN, Uniprot) (human, UniProt P50391 1-375); assay: SPA vs [125I]-PP
T3 construct: whole, on cells; Assayed as membrane preparations of the expressing cells
Experimental: as §1, §2

[5] = molecular target: T2, human Y5 receptor (Q15761, NPY5R_HUMAN, …); assay: ratio of SPA values, Y2 as reference
Experimental: as §1, §2

[6] = molecular target: T3, human Y4 receptor (P50391, NPY4R_HUMAN, …); assay: ratio of SPA values, Y2 as reference
Experimental: as §1, §2

T3 sequence (P50391 whole entry, one chain of several): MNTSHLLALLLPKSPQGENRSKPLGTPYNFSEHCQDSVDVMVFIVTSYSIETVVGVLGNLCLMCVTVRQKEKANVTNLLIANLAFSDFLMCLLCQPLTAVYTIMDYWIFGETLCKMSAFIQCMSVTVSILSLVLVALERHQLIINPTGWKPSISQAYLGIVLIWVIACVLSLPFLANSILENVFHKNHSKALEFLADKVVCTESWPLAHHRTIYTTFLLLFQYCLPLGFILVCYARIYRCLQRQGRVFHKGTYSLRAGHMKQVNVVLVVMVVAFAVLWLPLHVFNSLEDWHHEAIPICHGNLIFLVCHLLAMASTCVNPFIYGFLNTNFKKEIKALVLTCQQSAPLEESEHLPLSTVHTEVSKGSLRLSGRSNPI

Binder	Ki [1]	Y2 EC50, Actone functional potency assay [2]	Ki [3]	Ki [4]	Ratio of Y5/Y2 EC50 values [5]	Ratio of Y4/Y2 EC50 values [6]
RPEKPPEDASPEELQRYYASLRHYYNWLTRQRY (N-terminal alpha-amino (position 4): 3-methylbutanoyl; Lys7 (hPYY(1-36) numbering) epsilon-amino: [2-[2-[2-[[(4S)-4-carboxy-4-(13-carboxytridecanoylamino)butanoyl]amino]ethoxy]ethoxy]acetyl]; C-terminal amide, also called Compound 71; 71)	0.51 nM	0.5 nM	–	–	–	–
Isovaleryl-RPEAPGK([γGlu-AEEA-γGlu-C18 diacid])DASPEELQRYYESLRHYYNWLTRQRY-NH2 (SMILES CC(C)CC(=O)N[C@@H](CCCNC(=N)N)C(=O)N1CCC[C@H]1C(=O)N[C@@H](CCC(=O)O)C(=O)N[C@@H](C)C(=O)N1CCC[C@H]1C(=O)NCC(=O)N[C@@H](CCCCNC(=O)CC[C@H](NC(=O)COCCOCCNC(=O)CC[C@H](NC(=O)CCCCCCCCCCCCCCCCC(=O)O)C(=O)O)C(=O)O)C(=O)N[C@@H](CC(=O)O)C(=O)N[C@@H](C)C(=O)N[C@@H](CO)C(=O)N1CCC[C@H]1C(=O)N[C@@H](CCC(=O)O)C(=O)N[C@@H](CCC(=O)O)C(=O)N[C@@H](CC(C)C)C(=O)N[C@@H](CCC(N)=O)C(=O)N[C@@H](CCCNC(=N)N)C(=O)N[C@@H](Cc1ccc(O)cc1)C(=O)N[C@@H](Cc1ccc(O)cc1)C(=O)N[C@@H](CCC(=O)O)C(=O)N[C@@H](CO)C(=O)N[C@@H](CC(C)C)C(=O)N[C@@H](CCCNC(=N)N)C(=O)N[C@@H](Cc1c[nH]cn1)C(=O)N[C@@H](Cc1ccc(O)cc1)C(=O)N[C@@H](Cc1ccc(O)cc1)C(=O)N[C@@H](CC(N)=O)C(=O)N[C@@H](Cc1c[nH]c2ccccc12)C(=O)N[C@@H](CC(C)C)C(=O)N[C@H](C(=O)N[C@@H](CCCNC(=N)N)C(=O)N[C@@H](CCC(N)=O)C(=O)N[C@@H](CCCNC(=N)N)C(=O)N[C@@H](Cc1ccc(O)cc1)C(N)=O)[C@@H](C)O, also called Compound 50; 50)	3.3 nM	–	122 nM	–	–	–
Isovaleryl-RPEAPGK([γGlu-AEEA-γGlu-C18 diacid])DASPEELQRYYAELRHYYNWLTRQRY-NH2 (SMILES CC(C)CC(=O)N[C@@H](CCCNC(=N)N)C(=O)N1CCC[C@H]1C(=O)N[C@@H](CCC(=O)O)C(=O)N[C@@H](C)C(=O)N1CCC[C@H]1C(=O)NCC(=O)N[C@@H](CCCCNC(=O)CC[C@H](NC(=O)COCCOCCNC(=O)CC[C@H](NC(=O)CCCCCCCCCCCCCCCCC(=O)O)C(=O)O)C(=O)O)C(=O)N[C@@H](CC(=O)O)C(=O)N[C@@H](C)C(=O)N[C@@H](CO)C(=O)N1CCC[C@H]1C(=O)N[C@@H](CCC(=O)O)C(=O)N[C@@H](CCC(=O)O)C(=O)N[C@@H](CC(C)C)C(=O)N[C@@H](CCC(N)=O)C(=O)N[C@@H](CCCNC(=N)N)C(=O)N[C@@H](Cc1ccc(O)cc1)C(=O)N[C@@H](Cc1ccc(O)cc1)C(=O)N[C@@H](C)C(=O)N[C@@H](CCC(=O)O)C(=O)N[C@@H](CC(C)C)C(=O)N[C@@H](CCCNC(=N)N)C(=O)N[C@@H](Cc1c[nH]cn1)C(=O)N[C@@H](Cc1ccc(O)cc1)C(=O)N[C@@H](Cc1ccc(O)cc1)C(=O)N[C@@H](CC(N)=O)C(=O)N[C@@H](Cc1c[nH]c2ccccc12)C(=O)N[C@@H](CC(C)C)C(=O)N[C@H](C(=O)N[C@@H](CCCNC(=N)N)C(=O)N[C@@H](CCC(N)=O)C(=O)N[C@@H](CCCNC(=N)N)C(=O)N[C@@H](Cc1ccc(O)cc1)C(N)=O)[C@@H](C)O, also called Compound 53; 53)	1.15 nM	0.77 nM	452 nM	9290 nM	393	8080
Isovaleryl-RPEAPPK([γGlu-AEEA-γGlu-Hexadecanoyl(16-SO3H)])DASPEELQRYYASLRHYYNWLTRQRY-NH2 (SMILES CC(C)CC(=O)N[C@@H](CCCNC(=N)N)C(=O)N1CCC[C@H]1C(=O)N[C@@H](CCC(=O)O)C(=O)N[C@@H](C)C(=O)N1CCC[C@H]1C(=O)N1CCC[C@H]1C(=O)N[C@@H](CCCCNC(=O)CC[C@H](NC(=O)COCCOCCNC(=O)CC[C@H](NC(=O)CCCCCCCCCCCCCCCS(=O)(=O)O)C(=O)O)C(=O)O)C(=O)N[C@@H](CC(=O)O)C(=O)N[C@@H](C)C(=O)N[C@@H](CO)C(=O)N1CCC[C@H]1C(=O)N[C@@H](CCC(=O)O)C(=O)N[C@@H](CCC(=O)O)C(=O)N[C@@H](CC(C)C)C(=O)N[C@@H](CCC(N)=O)C(=O)N[C@@H](CCCNC(=N)N)C(=O)N[C@@H](Cc1ccc(O)cc1)C(=O)N[C@@H](Cc1ccc(O)cc1)C(=O)N[C@@H](C)C(=O)N[C@@H](CO)C(=O)N[C@@H](CC(C)C)C(=O)N[C@@H](CCCNC(=N)N)C(=O)N[C@@H](Cc1c[nH]cn1)C(=O)N[C@@H](Cc1ccc(O)cc1)C(=O)N[C@@H](Cc1ccc(O)cc1)C(=O)N[C@@H](CC(N)=O)C(=O)N[C@@H](Cc1c[nH]c2ccccc12)C(=O)N[C@@H](CC(C)C)C(=O)N[C@H](C(=O)N[C@@H](CCCNC(=N)N)C(=O)N[C@@H](CCC(N)=O)C(=O)N[C@@H](CCCNC(=N)N)C(=O)N[C@@H](Cc1ccc(O)cc1)C(N)=O)[C@@H](C)O, also called Compound 69; 69)	0.94 nM	–	146 nM	5690 nM	–	–
RPEKPTEDASPEELQRYYVSLRHYYNWLTRQRY (HELM PEPTIDE1{[CC(C)CC(=O)[*:2]].R.P.E.K.P.T.E.D.A.S.P.E.E.L.Q.R.Y.Y.V.S.L.R.H.Y.Y.N.W.L.T.R.Q.R.Y.[am]}|PEPTIDE2{[O=C(O)CCCCCCCCCCCCCCCCC(=O)[*:2]].[gGlu]}$PEPTIDE1,PEPTIDE2,5:R3-2:R2$$$V2.0; SMILES CC(C)CC(=O)N[C@@H](CCCNC(=N)N)C(=O)N1CCC[C@H]1C(=O)N[C@@H](CCC(=O)O)C(=O)N[C@@H](CCCCNC(=O)CC[C@H](NC(=O)CCCCCCCCCCCCCCCCC(=O)O)C(=O)O)C(=O)N1CCC[C@H]1C(=O)N[C@H](C(=O)N[C@@H](CCC(=O)O)C(=O)N[C@@H](CC(=O)O)C(=O)N[C@@H](C)C(=O)N[C@@H](CO)C(=O)N1CCC[C@H]1C(=O)N[C@@H](CCC(=O)O)C(=O)N[C@@H](CCC(=O)O)C(=O)N[C@@H](CC(C)C)C(=O)N[C@@H](CCC(N)=O)C(=O)N[C@@H](CCCNC(=N)N)C(=O)N[C@@H](Cc1ccc(O)cc1)C(=O)N[C@@H](Cc1ccc(O)cc1)C(=O)N[C@H](C(=O)N[C@@H](CO)C(=O)N[C@@H](CC(C)C)C(=O)N[C@@H](CCCNC(=N)N)C(=O)N[C@@H](Cc1c[nH]cn1)C(=O)N[C@@H](Cc1ccc(O)cc1)C(=O)N[C@@H](Cc1ccc(O)cc1)C(=O)N[C@@H](CC(N)=O)C(=O)N[C@@H](Cc1c[nH]c2ccccc12)C(=O)N[C@@H](CC(C)C)C(=O)N[C@H](C(=O)N[C@@H](CCCNC(=N)N)C(=O)N[C@@H](CCC(N)=O)C(=O)N[C@@H](CCCNC(=N)N)C(=O)N[C@@H](Cc1ccc(O)cc1)C(N)=O)[C@@H](C)O)C(C)C)[C@@H](C)O, also called Compound 44; 44)	0.33 nM	1.35 nM	470 nM	6670 nM	1420	20200
Isovaleryl-RPEAPGK([γGlu-AEEA-γGlu-C18 diacid])DASPEELQRYYASLRHYYNWLTRQRY-NH2 (also called Compound 59; 59)	–	–	279 nM	–	–	–
RPEKPPEDASPEELQRYYASLRHYYNWLTRQRY (N-terminal alpha-amino (position 4): 3-methylbutanoyl; Lys7 (hPYY(1-36) numbering) epsilon-amino: [(4S)-4-carboxy-4-[[(4S)-4-carboxy-4-(19-carboxynonadecanoylamino)butanoyl]amino]butanoyl]; C-terminal amide, also called Compound 12; 12)	1.1 nM	4.35 nM	–	–	–	–
Isovaleryl-RPEAPGK([AEEA-AEEA-γGlu-C18 diacid])DASPEELQRYYAELRHYYNWLTRQRY-NH2 (also called Compound 52; 52)	0.66 nM	–	182 nM	5690 nM	275	8620
Isovaleryl-RPEK([γGlu-C18 diacid])PTEDASPEELQRYYQSLRHYYNWLTRQRY-NH2 (also called Compound 43)	–	0.77 nM	509 nM	6400 nM	–	–
